Test results taken from patent publication US20070111222.

Test system: T1, fluorogenic peptide CAGSGSGPR-AMC (AMC=7-amino-4-methyl-coumarin)
T1 sequence: CAGSGSGPR

trypsin
release of fluorescent AMC (cleavage of the immobilized fluorogenic peptide): Adding trypsin to these disks results in the release of fluorescent AMC
